Laboratory results published in publication PMC4681293.

Molecular target: IFP2.0 (Deinococcus radiodurans)
Test: SEC

Substance: IFP2.0
- stoichiometry N: 2
